Target: T1, β2-microglobulin (UniProt P61769 21-119)
T1 construct: also called beta2-microglobulin
Assay: ELISA

binding result: no binding
B1: A2-DKK1 mAb (C2) (antibody, V domains shown)
VH: DVQLVESGGGLVQPGGSRKLSCAASGFTFSSFGMHWVRQAPEKGLEWVAYISSGSSTIYYADTVKGRFTISRDNPKNTLFLQMTSLRSEDTAMYYCARPYYYGSTYDAMDYWGQGTSVTVSS
VL: DIVMTQSHKLMSTSVGDRVTITCKASQDVGSTVAWYQQKPGQSPKLLIYWTSTRHTGVPDRFTGSGSGTDFTLTISNVQSVDLAVYFCQKFGSYPLTFGGGTKLEIK
notes: Murine monoclonal antibody from a Balb/c x SP2/0 hybridoma; also called C2 mAb; antibody C2
